{"source": "patent US5981262", "molecular_target": "phosphopeptide of SEQ ID NO: 32, containing the PI3K ligand pY.V.P.M.L. (SEQ ID NO: 31)", "experiment": "SPR (BIAcore); phosphopeptide immobilized via its C-terminal lysine, SH2 peptide injected at 0.5, 0.67, 1.0, 2.0 and 4.0 uM"}
{"substance": "N-terminal SH2 peptide of the PI3K p85", "values": [{"measurement": "Ka (binding affinity, printed in nM)", "result": 160, "unit": "nM"}]}
